Experimental data reported in paper PMC3308694 (The Journal of Cell Biology, 2012).

Biological target: the molecule itself
Test: SEC

B1: CC^95–303 with the E191A + K192A mutation (domain or fragment, S. cerevisiae, UniProt Q00402 95-303, looked up)
chain: KDMNFTLELSENLLVECRKLQSSNEAKNEQIKSLKQIKESLSDKIEELTNQKKSFMKELDSTKDLNWDLESKLTNLSMECRQLKELKKKTEKSWNDAAESLKLLKTDLEILTLTKNGMENDLSSQKLHYDKEISELKERILDLNNENDRLLISVSDLTSEINSLQSNRTERIKIQKQLDDAKASISSLKRKVQKKYYQKQHTSDTTVTS
Does B1 bind?
Result: binds
